US20220002412A1 (SINOCELLTECH, published 2022)

Columns and labels:
[1] = biological target: T1, recombinant human PD-1 protein (Sino Biological, Inc, Cat. 10377-H08H) (human, UniProt Q15116 25-167); assay: competition ELISA: coated recombinant human PD-1, blocked ligand PD-L1-Fc-biotin, antibody at three concentrations
[2] = biological target: T2, biotinylated FCGRT-His+B2M protein (human, UniProt P55899 24-297; P61769 21-119, biotinylated); assay: ELISA at pH 6.0, biotinylated FCGRT-His+B2M captured on avidin, antibody at 270 µg/mL
T2 construct: Bought from Sino Biological; also called recombinant human FcRn protein; human FcRn protein
T2 sequence (P55899 24-297 limits assumed, chain 1 of 2): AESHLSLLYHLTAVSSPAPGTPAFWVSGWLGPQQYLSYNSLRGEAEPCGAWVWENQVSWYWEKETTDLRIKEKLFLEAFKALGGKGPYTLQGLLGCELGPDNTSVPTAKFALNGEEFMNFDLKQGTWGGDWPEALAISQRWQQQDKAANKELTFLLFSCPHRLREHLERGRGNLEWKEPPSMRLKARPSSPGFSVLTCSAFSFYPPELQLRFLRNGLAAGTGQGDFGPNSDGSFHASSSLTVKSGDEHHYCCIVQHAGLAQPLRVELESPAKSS
T2 sequence (P61769 21-119 limits assumed, chain 2 of 2): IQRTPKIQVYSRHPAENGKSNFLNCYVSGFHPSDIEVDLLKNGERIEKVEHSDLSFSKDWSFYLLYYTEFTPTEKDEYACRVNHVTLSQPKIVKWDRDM

[3] = biological target: T3, recombinant monkey PD-1 protein (monkey, UniProt B0LAJ3 25-170, Biotinylated in the Octet assay; the site of biotinylation is not stated.); assay: indirect ELISA, coated antigen titrated (antigenic EC50), antibody at 2 µg/mL
T3 construct: Bought protein; also called biotinylated monkey PD-1 protein
T3 sequence (B0LAJ3 entry or part of it limits assumed): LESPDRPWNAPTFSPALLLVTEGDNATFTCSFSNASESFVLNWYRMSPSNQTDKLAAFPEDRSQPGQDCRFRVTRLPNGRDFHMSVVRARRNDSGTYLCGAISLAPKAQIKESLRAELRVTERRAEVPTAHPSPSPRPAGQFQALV

[4] = biological target: T4, recombinant CD16a-AVI-His (V158)+BirA protein (UniProt P08637 17-208, +BirA (AVI tag, detected with streptavidin/HRP)); assay: ELISA: antibody titrated on coated recombinant human PD-1, then recombinant CD16a-AVI-His (V158)+BirA with streptavidin/HRP
T4 construct: Bought from Sino Biological; It is the V158 allotype as printed; also called recombinant CD16a (V158) protein; recombinant CD16a protein
T4 sequence (P08637 17-208 F176V limits assumed): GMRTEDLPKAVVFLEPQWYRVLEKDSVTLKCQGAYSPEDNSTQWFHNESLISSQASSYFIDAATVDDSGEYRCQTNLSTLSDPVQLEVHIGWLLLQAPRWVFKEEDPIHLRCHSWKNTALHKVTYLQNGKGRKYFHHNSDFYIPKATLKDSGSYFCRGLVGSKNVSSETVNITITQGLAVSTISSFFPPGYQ

[5] = biological target: T3, recombinant monkey PD-1 protein; assay: Octet (BLI), biotinylated monkey PD-1
[6] = biological target: T5, recombinant mouse PD-1 protein (mouse, UniProt Q02242 25-167, limits assumed, biotinylated in the Octet assay); assay: Octet biolayer interferometry on biotinylated mouse PD-1 protein
T5 construct: Bought protein; also called murine PD-1; biotinylated mouse PD-1 protein
T5 sequence (looked up): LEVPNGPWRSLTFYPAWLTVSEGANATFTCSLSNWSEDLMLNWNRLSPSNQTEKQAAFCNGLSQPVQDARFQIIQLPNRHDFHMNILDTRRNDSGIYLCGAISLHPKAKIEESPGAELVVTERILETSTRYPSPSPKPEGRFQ

[7] = biological target: T3, recombinant monkey PD-1 protein; assay: indirect ELISA, coated antigen titrated, antibody at 2 µg/mL
[8] = biological target: T1, recombinant human PD-1 protein (Sino …); assay: monoclonal phage ELISA on recombinant human PD-1 protein

T1 sequence (Q15116 25-167 limits assumed): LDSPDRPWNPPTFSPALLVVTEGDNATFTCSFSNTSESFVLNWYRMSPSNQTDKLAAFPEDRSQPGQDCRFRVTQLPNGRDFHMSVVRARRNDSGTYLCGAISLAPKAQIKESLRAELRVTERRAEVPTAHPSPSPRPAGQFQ

B1: murine antibody PD1-M944 (antibody, mouse IgG1, V domains shown)
VH: EVQLVESGGGLVKPGGSLKLSCAASGFTFSSYGMSWVRQTPEKRLEWVATISGGGRDTYYSDSVKGRFTVSRDNAKNNLFLQMSSLRSEDTALYYCSRQYGTVWFFNWGQGTLVTVSA
VL: not shown
notes: Full antibody with mouse IgG1 heavy chain constant region and mouse kappa light chain constant region; Expressed in HEK-293 cells
B1: binds [1].

B2: humanized antibody PD1-H944 (antibody, human IgG4 S228P, kappa)
heavy: not shown
light: EIVLTQSPATLSLSPGERATLSCRASESVDSYGNSFMHWYQQKPGQPPRLLIYAASNQGSGVPARFSGSGSGTDFTLTISSLEPEDFAMYFCQQSKEVPWTFGQGTKVEIKRTVAAPSVFIFPPSDEQLKSGTASVVCLLNNFYPREAKVQWKVDNALQSGNSQESVTEQDSKDSTYSLSSTLTLSKADYEKHKVYACEVTHQGLSSPVTKSFNRGEC
With B2 the “binding relative to Nivolumab at 270 µg/mL” value [2] was about 1.62 times, the EC50 [3] was 0.0327 µg/mL and the binding result [4] was “no binding (tested: 80 µg/mL)”. The Kd [5] was 0.108 nM and the binding result [6] was “no binding (tested: 13.30 nM)”.

B3: Nivolumab (antibody, V domains shown)
VH: QVQLVESGGGVVQPGRSLRLDCKASGITFSNSGMHWVRQAPGKGLEWVAVIWYDGSKRYYADSVKGRFTISRDNSKNTLFLQMNSLRAEDTAVYYCATNDDYWGQGTLVTVSS
VL: EIVLTQSPATLSLSPGERATLSCRASQSVSSYLAWYQQKPGQAPRLLIYDASNRATGIPARFSGSGSGTDFTLTISSLEPEDFAVYYCQQSSNWPRTFGQGTKVEIK
In the case of B3, the EC50 [7] is reported as 0.0802 µg/mL and the Kd [5] is reported as 0.131 nM.

B4: M944 scFv antibody (scFv)
scFv: DIVLTQSPASLAVSLGQRATISCRASESVDSYGNSFMHWYQQKPGQPPKLLIYAASNQGSGVPARFSGSGSGTDFSLNIHPMEEDDTAMYFCQQSKEVPWTFGGGTKLEIKSSGGGGSGGGGGGSSRSSEVQLVESGGGLVKPGGSLKLSCAASGFTFSSYGMSWVRQTPEKRLEWVATISGGGRDTYYSDSVKGRFTVSRDNAKNNLFLQMSSLRSEDTALYYCSRQYGTVWFFNWGQGTLVTVSA
notes: Tested as a monoclonal phage clone (pComb3x phage display); Any phage fusion partner is not described; also called PD1-M944 scFv
B4: binds [8].
